In the DeepSol protein solubility set:

test: soluble on expression in E. coli; label from the status in PepcDB or PDB records

Row | Sequence | soluble on expression in E. coli
1 | MGSDKIHHHHHHAKKVKGNGDIITKEISVRDYSAIKVGSTAMGYSDSWFSLFSRGGNPSYVFGYTQGESASLRITIDENLYPYINVQVKNEELSISTENGTQLSPTRFKIEGTSKKLEKIKMSGCMDFVLRSALSGDDLEIIATRGSDVKMEQPINVSNCIIEATSGSDIIINDLTTRIIRGRASGGSDLKLTGKAENGEYSASGGSDIKAYDLILNQLECSASGGSDIYTHVTDYIKASASGGSDVHYKGSARSDTSTSGGSDIIKEGN | not soluble
2 | MGSDKIHHHHHHALKKIYPHATNVSWSQQGNYYVASFTQNGFEKEVWMNGNAQWVMTNTDLQTTDQLTPNVYNDFTLSPYAMWTATNVNLIEFPKRTTLYVITVNLNNSSATKQLFYTLNGRLLQTRDVSYINPTLSPGIFEF | not soluble
3 | MGSDKIHHHHHHAPNEEGISVQKMTGFPEGEPGFSLGVSACYAGIYQGELLIAGGCNFPETPAAEGGKKKFYQGIYAADASADSVFVWRKVGQLPVAAAYGVSVSTPRGIVCVGGSNENGSLSTVYRLSLSDDKQAVIVDTLPSLPCTMDNMSGSVVDYTLFVAGGNVNGKPSNGLYCLNLGNPETGWQQLPDFPGAPRVQPVCVGQRKENETLLYLWGGFSGAFDGRSATLSTDGYCYSPSLQQWQPVSTPIGSDSVPVALGGGAGIALTDSLILCTGGVNKDIFLSALQREEMMKAAVTGGNQAAVDSLKSEAKTYMLHPAEWYRFNDRILIYNTRRDKWEEAVRSQDVARAGAALTTGQGQTFFNINGELKPGIRTPEIAKIMID | not soluble
4 | MGSDKIHHHHHHAQDRAQQASELLDRLIAGQGDSVYVHLDDNIRKMLSVEMLNGLFKQLEQQAGKYQSHGEWNTEPINGMTVYYCDVKFERLPLRFLTAFNPDGKVNTIRFVPVPPEKTTPPTTSVQDKIKETDIQVCTGNFKLPGTLTLPKNGKDLPVVILVHGSGASDRDETVGANKPFRDLAYGLAERGIAVIRYDKRTKVYGADSAPAGKEITFDEESVDDALSAIKLARSIPTINPERIYILGHSLGGTLAPRIAQRSDKVPAGIILLAGAARPLEDLFISQVKFLASALPSTKDIEKEIAELQKQVDNVKRLGTDTFDITTPLPMNLSQAYWMLANQYKPLEVVRKLTLPILVLQGERDYQVTMQDFELWKSALAKHPNAIFKSYPRLNHLFQEGEGKSTPLEYSRPSSIPSYVTDDIAAFINRPKPGN | not soluble
5 | MGSDKIHHHHHHAQNRNTSICRLGFTYDISQSKNWGNNKPVIKSIIPYSSAEQAGIKKYDVIEEINGVPVTEVSVDEIPQLLNPAGRNDVLLTISNLSSPSKQVLVKKDCKKSNAITEDQLASAYAMYSLETTNEQEFVCPFKTTVTSDGVDFGNFKTFAFSTIDENNRKLETVINECIENELTKKGLTVDIAKPDLLIQTFYFFDKNPNYLGANKVLVEKEPTYRYNFSHSKMEKFPFLNYAAAEAEAEYLLQFGIRIIDQKDIPGRVLWECEANELLEDSYRLDEYARVHVPLMCMQYPYTKYGRNVPFKVSKKTYNYTGISYDIDKLDQVVDVDRNSPAYAAGIRPRDIIEKIGRHKMDHSAEEFSSAYKRFITNTMQYRDPKTMFTDANGFKYCMFWDVFKYPQIADASQSSDYLPAFSYLYYFAPYINPSGNNACTFNIKRGKTKLEVIIRPTIRSEVTVEIK | not soluble
6 | MGSDKIHHHHHHCQTQVETAPTSDVIKLQQTALASQLGYDIVESLTVEVGPRLAGSPKDIIAVNWAINKLTSLGFDRVYKEPVQVPIWERGEAKAKITFPVEQPLVITALGGSIATPAGGIQAKIARFDSLEALQQAKPEDVQGKIAFIDQKTERHITGEGYGKSVGGRSKGAVVAAQKGAVAIVIRSIGTDHDRMAHTGVMRYQDDVPKIPAAAMSNPDADLVDALLKRNPDALLELQMSPKNAGFNTSYNVIAEVTGSSKPNEIVLIGAHLDSWDEGTGAIDDGAGVAIVTAAAKHIQDLLVKPARTVRVVLYAAEEIGLVGGKAYAETHKAELPLHYIAAESDFGAGRIYQIDTKVNESAFAEVQHALSPMSFNGVALGNNQASGGPDVSMLPALGVPVASLRQDGHDYFDYHHTPNDTLDKIDPAALAQNVAAYAQFAYIMANSTPTLTPLVIQSEK | not soluble
7 | MGSDKIHHHHHHDNLQAPGSIKDEEKLRSWLAGYEAEAIKVLREVALSGWRYFNDASPSLKLALDEAENVLTMFVRSTSMQAKQFDMASVTDEKVMRQLGYVSFEGMSALAPSRFADYSQAQAALNRDSKDSTICDKDVPPPCALQKIDMDSIFRNEKDASRLQHLWVSYVTAIAKSKPSYNNIITISNEGAKLNGFANGGAMWRSAFDMSSKVHKAEFDLNKQIDKIYSTIQPFYQLLHAYMRRQLAGIYSNPVGLSKDGPIPAHLFGSLDGGDWSAHYEQTKPFEEESETPEAMLSAFNTQNYTTKKMFVTAYRYFKSAGFPHLPKSYWTSSIFARVWSKDMICHPAAALDMRAPNDFRVKACAQLGEPDFEQAHSLLVQTYYQYLYKDQSLLFREQASPVITDAIANAFAHLSTNPHYLYSQKLVPSEHLDIKDSVIINKLYKESLESFTKLPFTIAADNWRYELFDGTVPKNKLNDRWWEIRNKYEGVRSPQPYNTSNLDALIHNSVSQVHSPATRTLISYVLKFQILKALCQRELFWLSEGCILSEDTTEKLRETMKLGSSITWLKALEMISGKGELDAQPLLEYYEPLINWLRNTNEIDQVVVGWDGEGTP | not soluble
8 | MGSDKIHHHHHHDNNVVVLNGSGRSGSNGYAFYKWLLINHPEFNVTLVEPWPSSHLKWETWQKIGAARYVITTHQPFKVRKHQINVQLWHGVPLKRMGIMANNTRYKDNKRNEKLWHKNADIVASSSDLYETLMSACMAIESKKYQKLGFPRLDLLSKPVISKKELLKDLFDQEDEQAAIGIYMPTFRYELEDKSIMQKIKEGNFFAFADFDGEKLNKELKKRHQYLIVKLHPYEMRLFDNFKSQYSNISFLNNDYLFDHNYDLYELLGDTDFLMTDFSSIYFDYLHLNKPIVFVTNFLKQYEKTRGLLMGPYSEITPGISVNSEQELINNLDHLDNQQIVNRRIYWLNLTNQVHGDSYCENVFKYMTQEYRG | not soluble
9 | MGSDKIHHHHHHENLYFQGMTQLELLLERIIDRVNVNLRHQKFDVGDYVRRQTPHLHYSKFYAFYGLSADDPVHFHFKNSSLAGSYLLGRVNVLHSALYKSDIRGDELKRKGQHFVCDGKMIPLHDDEVITIKDSFLNKTLVHSNSHDPESPEEFTIRNTVAMPYANIHGSLTEGSFIGSFATVDLSTIHNSVVRYFSYVQTGELVGKCVEPGQIWIKSGDELEFHYSFDKAILDKYISQEAGSCPTGVLMEFVEVRQEDFEEVFASGHMASGAGSASGASVSGYAVIKGDTVIGENVLVSQRAYLDNAWMGKGSNAQENCYIINSRLERNCVTAHGGKIINAHLGDMIFTGFNSFLQGSESSPLKIGDGCVVMPHTIIDLEEPLEIPAGHLVWGYIRNKADLAAHSISFEEFAKVDGEVTMGRMTFRGKGGPFLDSFKKRIKRILSENGAFFDGSEGTGHAQKGKNFTFNIIQPYQDGDPRGMYPTILIQPNNGS | soluble
10 | MGSDKIHHHHHHESDLEQVTYSSENAIPSTLSSLNDNYILESKNASQEAFTLTWSHPDLGYQASVINSLEMDVKDKNFANKVILASSKTDVSHTITVSDLNSKIMALLKVYEMETAPIGIEFRISSSISAAADTLYSNIVSTTITPYEGEPEYPAITLRGSYNGWDFTKSQKVYSVNSDNIYAAMVYFDGKAADGWKFCGTEDWSTDNWGAPESMTPEQSPVTLVSGNGGDIKAYSKNSYYLEFNNTTGELKVSKPHNSWGIVGDHNSWGSGDTMMTLETETDENNKFQYYLKATLDMSAGNKWKIRPEEKWEDDIAPGAVEGEFEDAGDGNFKVSEAGNYTIKWYFNKVTPKIIVVKNK | not soluble
11 | MGSDKIHHHHHHFEDLKPVIADSTKVTQAHTYKDINKLDIDVKDVNVEFREGKNYSVRYEGAKSSSPTVKKSGNQLQIKGRLSSHSIRFNGMSMYDDYYRNSDRNKMIITLPKDSKLDELNLKLSDSLLSQVNMTGIEADRVKASIHDTKLDLRDANFGNVELSAGDSDISMTNTVLSNGKLDLNDTDVRLDGGSLMQVAMNITEGDVDYNNLSIQGGNLRNNDGDIKMSNTQIQGGYKIDDTDGDILVSRVTVDGYRVQSNDGDVRLFEQTTSNGNVLEKNSNSDNVLDIISNDGDITVN | not soluble
12 | MGSDKIHHHHHHGDIYNGTTMGVTFATGTQSVSFPSTGYEGFDVEVLRAKSSEATTINLSATLVVGDKEQELPASITVPSSVSFAAGEFKTNIHVTVGDITPGQNYKVKISLPEEMVTIDQTSDKVITVYRDYTFSSLGTGTFKSAAMAEEGEDFTTWEVEVQKADQISWYKAMNLYEKGYNIVFKVNEANEVTVESQPAWKHASYGEVFVSGKGALEDGVITVKLSHDVPNVGGFGEFKEILYLPAK | not soluble
13 | MGSDKIHHHHHHGEYNKLLKSTDYEYKYEAAKNYFAKGQYNRSATLLNELITILKGTDKAEESLYMLGMSYYNQKDYQTAAQTFITYFNTYPRGTFTELARFHAGKSLFLDTPEPRLDQSSTYQAIQQLQMFMEYFPNSTKKQEAQDMIFALQDKLVLKELYSAKLYYNLGNYLGNNYESCVITAQNALKDYPYTDYREELSILILRARHEMAIYSVEDKKMDRYRETIDEYYAFKNEFPESKYLKEAEKIFNESQKVIKD | not soluble
14 | MGSDKIHHHHHHGREEKTVYDFPLEQSLKSDKEVSLNKELLAPYLMCSYDSTLCLIDWTANPMVHVYNMNTGKEMVAFGNKGMGPDDFLSISQMYVDMGKRSLLLYDQSLQTISSFQIDSLAQGSLSKIDCVSAPKLGMNRVYAYSDSIFYGSGTFESGLIAKCNQKEILNQYLPFPHTEQAVNRDVNYLLFQGDLIMKPDKKRFAYLAYECDLLSIQKVVNDTCLESVVHLNTYTPVFENQSTNEVSSVNVSTDSPKGFLRGVATENYVYALYSGQIGKNKAIANEVYVFDWEGRAVKKVILDRWGICISVDSNDERLCLMTKETDGGEERYHYYCYQLN | not soluble
15 | MGSDKIHHHHHHHKKTFDYIFNKTEAITLEQSKLTLSKDITVLSFSDSSMVDRNSSIIKVDSGWIVYSKNSESSILSFTSDGQFSGYIGHRGNGPGEYTSVYDVVVNQKSKVLEVLSDGGIFCYTFGGDFLDKKEVTYPAFSFAIDDRQNYWFYVGNNTTYGDAKMICTDENIANVAYYLHQKSNMLPMVENNFGRNGEWLTFHESLNHDLYTIENGKLDLSYAMDFPNYKLPKKLHELSGMEVIEELQRSNYASIINYLENHDYIFLNVLLNNEGERIPEVYYWIISKNLQEEVIIKIDGGISAESYLFNTQYLSNDNKLYCLGYIWENKDVESFEENLNPSVVALEFNELFSKVR | not soluble
16 | MGSDKIHHHHHHHPCARLSVRMSSTGIDRKGVLANRVAVVTGSTSGIGFAIARRLARDGAHVVISSRKQQNVDRAMAKLQGEGLSVAGIVCHVGKAEDREQLVAKALEHCGGVDFLVCSAGVNPLVGSTLGTSEQIWDKILSVNVKSPALLLSQLLPYMENRRGAVILVSSIAAYNPVVALGVYNVSKTALLGLTRTLALELAPKDIRVNCVVPGIIKTDFSKVFHGNESLWKNFKEHHQLQRIGESEDCAGIVSFLCSPDASYVNGENI | not soluble
17 | MGSDKIHHHHHHKNTDLVAEDSICFPIDEHTYYASKSIFQFEENGHEYLSFLDAEYSQKINIYDIKNQKLIKTILLQKEGPNGMNVLSGCHPLNLNHFIITSWNGTFSLVNDKGEIEKKFDFWEKGVNFQEFDHISFSSYSYKPAIIKDSILYFSQSFLKHPRKKSDWNKIPMFAFANLNTGKTGWSELRYPLIFNKDEDFKNVKLYDPEICYTYTGKDVVISLGQYDSIMVSSDFKHKISYNAKSRYLAHAYPHLQDGQIDLFKNIQIQGKLPHYSHLMYDKYRKVFYRFALMPDDNIKPFSNNPHQSFSIIILNKDYEIIGETKFPGNTYTHHLCFVGKKGLYISENNENNPQFDENKLVFRCFTLQDRKK | not soluble
